Test results published in publication PMC6416899.

Target: PtoMYB221 fused to Cub (split-ubiquitin bait) (Populus tomentosa)

full-length PtoUBC34 fused to Nub (split-ubiquitin prey) (from UniProt A0A482P071 1-235) (enzyme)
decrease in LUC activity by 2.56 μg PtoMYB221 effector plasmid against the control without PtoMYB221, with 600 to 1200 ng PtoUBC34 (35.16% with 1200 ng; 72.66% when no exogenous PtoUBC34 was added): 54.8%
